From patent US20240115721A1 (Memorial Sloan Kettering, published 2024)

Experiments:
[1] = target: T1, endogenous human DLL3 on NCI-H82 cells (human, UniProt Q9NYJ7 27-618); experiment: cell-based or functional assay
T1 sequence (looked up): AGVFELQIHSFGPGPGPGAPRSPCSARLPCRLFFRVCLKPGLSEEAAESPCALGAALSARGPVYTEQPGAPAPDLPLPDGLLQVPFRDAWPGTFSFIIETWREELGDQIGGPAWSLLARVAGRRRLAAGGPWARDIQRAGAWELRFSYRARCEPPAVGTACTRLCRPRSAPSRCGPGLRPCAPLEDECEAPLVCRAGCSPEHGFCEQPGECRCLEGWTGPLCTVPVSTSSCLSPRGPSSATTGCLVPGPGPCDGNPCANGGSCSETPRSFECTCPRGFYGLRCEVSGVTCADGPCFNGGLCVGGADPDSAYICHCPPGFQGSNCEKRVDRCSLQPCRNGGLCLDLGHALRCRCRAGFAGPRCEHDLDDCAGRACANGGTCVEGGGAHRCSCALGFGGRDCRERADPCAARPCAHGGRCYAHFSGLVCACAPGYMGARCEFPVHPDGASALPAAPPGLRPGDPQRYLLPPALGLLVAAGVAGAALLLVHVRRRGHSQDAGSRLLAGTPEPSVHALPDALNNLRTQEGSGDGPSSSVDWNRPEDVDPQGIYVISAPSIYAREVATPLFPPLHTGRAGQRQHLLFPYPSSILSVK

[2] = target: T1, endogenous human DLL3 on NCI-H82 cells; experiment: cell-based or functional assay; remark: listed apart in the source
[3] = target: T1, endogenous human DLL3 on NCI-H82 cells; experiment: cell-based or functional assay; remark: listed apart in the source
[4] = target: T1, endogenous human DLL3 on NCI-H82 cells; experiment: flow cytometry, NCI-H82 cells (endogenous DLL3), mAb 10 µg/ml
Procedure: (§1) The four monoclonal antibodies (6-G23-F, 2-C8-A, 7-I1-B and 10-O18-A) were tested for their ability to bind to mouse and cynomolgous DLL3 as well as endogenous human DLL3 by flow cytometry. For this purpose, HEK293 cells were transfected with plasmid DNA encoding full-length human, mouse or cynomolgous DLL3 and used in the experiment. Briefly 106 transfected HEK293 cells or NCI-H82 primary cells were added in FACS buffer PBS 0.5% BSA to the wells of a 96 well U bottom plate and purified monoclonal added to 10 μg/ml. After 30 minutes incubation at 4° C. the cells were washed 3 times in FACS buffer and incubated with a PE labelled F(ab)2 anti-mouse IgG H and L 2nd stage. After another 30 minutes incubation at 4° C. the cells were washed three times in FACS buffer and analyzed on the flow cytometer. Data are presented at the ratio of the Mean Fluorescent Intensity for the monoclonal divided by the background staining with the 2nd stage. As shown in the Table below, all of the monoclonal antibodies cross reacted with cynomolgous DLL3 and detected endogenous DLL3 on NCI H82 cells but only 6-G23-F and 7-I1-B bound to mouse DLL3.

[5] = target: T2, full-length human DLL3 on transfected HEK293 cells (human, UniProt Q9NYJ7 27-618); experiment: flow cytometry, HEK293 cells transfected with full-length human DLL3, mAb 10 µg/ml
T2 construct: also called 293 hDLL3
T2 sequence: T1 sequence (looked up)
Procedure: as §1

[6] = target: T3, full-length mouse DLL3 on transfected HEK293 cells (mouse, UniProt O88516 33-584); experiment: flow cytometry, HEK293 cells transfected with full-length mouse DLL3, mAb 10 µg/ml
T3 construct: also called 293 mDLL3
T3 sequence: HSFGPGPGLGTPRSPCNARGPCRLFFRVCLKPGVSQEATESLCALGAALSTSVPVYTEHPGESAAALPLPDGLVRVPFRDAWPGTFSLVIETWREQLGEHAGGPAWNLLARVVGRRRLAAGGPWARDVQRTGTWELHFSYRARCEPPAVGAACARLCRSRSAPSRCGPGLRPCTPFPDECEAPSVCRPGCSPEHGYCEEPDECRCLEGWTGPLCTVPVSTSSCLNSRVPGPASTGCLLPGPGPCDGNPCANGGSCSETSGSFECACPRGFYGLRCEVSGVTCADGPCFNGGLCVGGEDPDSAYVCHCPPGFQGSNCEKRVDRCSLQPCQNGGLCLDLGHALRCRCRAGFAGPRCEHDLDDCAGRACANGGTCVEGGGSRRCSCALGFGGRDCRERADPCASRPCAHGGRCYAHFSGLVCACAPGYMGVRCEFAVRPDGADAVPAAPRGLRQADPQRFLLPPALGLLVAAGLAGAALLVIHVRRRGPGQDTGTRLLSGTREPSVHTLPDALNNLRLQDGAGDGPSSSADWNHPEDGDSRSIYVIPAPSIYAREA
Procedure: as §1

[7] = target: T4, full-length cynomolgous DLL3 on transfected HEK293 cells (cynomolgous); experiment: flow cytometry, HEK293 cells transfected with full-length cynomolgous DLL3, mAb 10 µg/ml
T4 construct: whole, on cells; also called 293 cyno DLL3
Procedure: as §1

B1: 6-G23-F (antibody, V domains shown)
VH: QVQLVQSGAEVKKPGASVKVSCKASGYTFTSYYIHWVRQAPGQGLEWMGIIDPSDGSTNYAQKFQGRVTMTRDTSTSTVYMELSSLRSEDTAVYYCARDREYNYYGLDVWGQGTTVTVSS
VL: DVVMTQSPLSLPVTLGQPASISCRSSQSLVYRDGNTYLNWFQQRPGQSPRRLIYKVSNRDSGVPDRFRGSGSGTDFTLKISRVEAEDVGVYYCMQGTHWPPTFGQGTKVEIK
notes: Hybridoma monoclonal from Ablexis AlivaMAb Kappa mice (human immunoglobulin repertoire); the antibody was captured on anti-mouse Fc sensors and detected with anti-mouse IgG / anti-mouse IgG1 reagents; It is not the recombinant human IgG1 form H6-G23-F; also called 6-G23-F (10 µg/ml)
MFI Ratio (4° C. plate / 37° C. plate), 4/37 internalization assay on NCI-H82 cells [1]: 1.67
Dy light Dy658 Fluorescence (% of the Control Reference Monoclonal Antibody), quenching internalization assay on NCI-H82 cells [2]: 76.5%
FAB ZAP % SC16 Max Killing, NCI-H82 cells [3]: 94%
ratio of Mean Fluorescent Intensity (monoclonal / background staining with 2nd stage) [4]: 11.1
ratio of Mean Fluorescent Intensity (monoclonal / background staining with 2nd stage) [5]: 6.33
ratio of Mean Fluorescent Intensity (monoclonal / background staining with 2nd stage) [6]: 3.97
ratio of Mean Fluorescent Intensity (monoclonal / background staining with 2nd stage) [7]: 13.1

B2: 2-C8-A (antibody, V domains shown)
VH: EVQLVESGGGLVQPGGSQRLSCAASGFTFSSYWMNWVRQAPGKGLEWVANIKEDGSEKYYVDSVKGRFTISRDNAKNSLYLQMNSLRAEDTAVYYCARDPGWAPFDYWGQGTLVTVSS
VL: DIQMSQSPSSLSASVGDRVTITCRASQGISNYLAWFQQKPGKAPKSLIYAASSLQSGVPSKFSGSGSGTDFTLAISSLQPEDFATYYCQQYNSFPYTFGQGTTLEIK
notes: Hybridoma monoclonal from Ablexis AlivaMAb Kappa mice; captured and detected with anti-mouse Fc / anti-mouse IgG reagents; It is not the recombinant human IgG1 form H2-C8-A; also called 2-C8-A (10 µg/ml)
MFI Ratio (4° C. plate / 37° C. plate), 4/37 internalization assay on NCI-H82 cells [1]: 1.76
Dy light Dy658 Fluorescence (% of the Control Reference Monoclonal Antibody), quenching internalization assay on NCI-H82 cells [2]: 62.9%
FAB ZAP % SC16 Max Killing, NCI-H82 cells [3]: 89%
ratio of Mean Fluorescent Intensity (monoclonal / background staining with 2nd stage) [4]: 11.9
ratio of Mean Fluorescent Intensity (monoclonal / background staining with 2nd stage) [5]: 7.71
ratio of Mean Fluorescent Intensity (monoclonal / background staining with 2nd stage) [6]: 1.5
ratio of Mean Fluorescent Intensity (monoclonal / background staining with 2nd stage) [7]: 15

B3: 7-I1-B (antibody, V domains shown)
VH: EVQLVESGGGLVKPGGSLRLSCAASGFTFSNTWMSWVRQAPGKGLEWVGRIKSKSDGGTTDYAAPVKGRFTISRDDSKNTLYLQMNSLKTEDTAVYYCTQYYWNSFDYWGQGTLVTVSS
VL: not shown
notes: Hybridoma monoclonal from Ablexis AlivaMAb Kappa mice; captured and detected with anti-mouse Fc / anti-mouse IgG reagents; also called 7-I1-B (10 µg/ml)
MFI Ratio (4° C. plate / 37° C. plate), 4/37 internalization assay on NCI-H82 cells [1]: 1.68
Dy light Dy658 Fluorescence (% of the Control Reference Monoclonal Antibody), quenching internalization assay on NCI-H82 cells [2]: 70.1%
FAB ZAP % SC16 Max Killing, NCI-H82 cells [3]: 97%
ratio of Mean Fluorescent Intensity (monoclonal / background staining with 2nd stage) [4]: 19.2
ratio of Mean Fluorescent Intensity (monoclonal / background staining with 2nd stage) [5]: 9.74
ratio of Mean Fluorescent Intensity (monoclonal / background staining with 2nd stage) [6]: 4.7
ratio of Mean Fluorescent Intensity (monoclonal / background staining with 2nd stage) [7]: 18.7

B4: 10-O18-A (antibody, V domains shown)
VH: QVQLQESGPGLVKPSETLSLTCTVSGGSINSYYWSWIRQPPGKGLEWIGYIFYSGITNYNPSLKSRVTISLDTSKNQFSLKLSSVTAADTAVYYCARIGVAGFYFDYWGQGTLVTVSS
VL: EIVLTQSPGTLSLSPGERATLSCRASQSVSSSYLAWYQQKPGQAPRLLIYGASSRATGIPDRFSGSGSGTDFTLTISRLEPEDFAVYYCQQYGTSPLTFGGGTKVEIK
notes: Hybridoma monoclonal from Ablexis AlivaMAb Kappa mice; captured and detected with anti-mouse Fc / anti-mouse IgG reagents; It is not the recombinant human IgG1 form H10-O18-A; also called 10-O18-A (10 µg/ml)
MFI Ratio (4° C. plate / 37° C. plate), 4/37 internalization assay on NCI-H82 cells [1]: 1.56
ratio of Mean Fluorescent Intensity (monoclonal / background staining with 2nd stage) [4]: 9.4
ratio of Mean Fluorescent Intensity (monoclonal / background staining with 2nd stage) [5]: 4.74
ratio of Mean Fluorescent Intensity (monoclonal / background staining with 2nd stage) [6]: 0.99
ratio of Mean Fluorescent Intensity (monoclonal / background staining with 2nd stage) [7]: 9.85
